Results on two molecules are retold here after patent publication US20180201672A1 (ACADEMIA SINICA, published 2018).

The test has as its target T1, interleukin-17 receptor B (IL-17RB), human, endogenous or ectopic full-length on cells (human, UniProt Q9NRM6 18-502).
T1 construct: In the assays the protein stood on human cancer cell lines or tissue sections; also called native IL-17RB; endogenous IL-17RB
T1 sequence: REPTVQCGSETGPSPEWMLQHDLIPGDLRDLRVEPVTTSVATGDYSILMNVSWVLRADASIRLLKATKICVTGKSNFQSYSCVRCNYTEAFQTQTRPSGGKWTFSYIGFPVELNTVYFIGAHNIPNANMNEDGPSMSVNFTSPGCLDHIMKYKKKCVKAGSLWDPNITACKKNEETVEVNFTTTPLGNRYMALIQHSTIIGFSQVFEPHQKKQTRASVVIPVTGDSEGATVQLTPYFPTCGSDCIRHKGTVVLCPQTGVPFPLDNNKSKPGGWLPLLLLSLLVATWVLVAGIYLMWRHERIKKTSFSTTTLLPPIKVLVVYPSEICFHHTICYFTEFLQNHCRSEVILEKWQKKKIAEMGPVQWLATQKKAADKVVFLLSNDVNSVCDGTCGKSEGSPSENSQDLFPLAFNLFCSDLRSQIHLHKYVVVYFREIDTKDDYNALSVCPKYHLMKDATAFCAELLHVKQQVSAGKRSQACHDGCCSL
In words: FACS on IL-17RB expressing pancreatic cancer cell lines (CFPAC-1 WT and KO, HPAF-II; MCF10A negative control). How it is done:
FIG. 9. Specificity and Binding Efficiency of anti-IL17RB chimeric D9 antibody (cD9). A, the specific recognition of mouse and chimeric D9 antibody to IL-17RB was determined by FACS analysis using IL-17RB expression (WT) and IL-17RB knock-out (KO) pancreatic cancer cell line CFPAC-1. The FACS profiling of no antibody (no staining) or secondary antibody only (2nd Ab only) were served as control. B, the recognition efficiency of mouse and chimeric D9 antibody was measured by FACS analysis using IL-17RB expression pancreatic cancer cell lines, CFPAC-1 and HPAF-II. MCF10A with no IL-17RB expression was served as negative control.

B1: chimeric monoclonal anti-IL-17RB antibody cD9 (antibody, V domains shown)
VH: EVQLQQSGPELVKPGASVKISCKTSGYTFTEYTIHWVKQNHGKSLDWIGGINPNNGGTTYNQEFKGKATLTVDKSSSTAYMEFRSLTSEDSAVYYCARSYYGYVDYWGQGTTLTAA
VL: QIVLTQSPAIMSASPGEKVTMTCSASSSIYYIHWYQQKSGTSPKRWIYDTSKLASGVPARFSGSGSGTSYSLTISSMEAEDAATYYCQQWSSNPFTFGSGTKLEIK
notes: also called chimeric D9 antibody; mAb cD9
In the case of B1, the binding result was “binds”.

B2: mouse monoclonal anti-IL-17RB antibody D9 (antibody, V domains shown)
VH: B1 VH
VL: B1 VL
notes: Mouse monoclonal antibody from a hybridoma, raised against recombinant IL-17RB extracellular domain (amino acids 18-289) made in HEK293 cells; also called mAb D9; mAbD9
As for B2, the binding result is listed as “binds”.
